# Source: paper PMC9891822, “Cysteine Pathogenic Variants of PMM2 Are Sensitive to Environmental Stress with Loss of Structural Stability” (Oxidative Medicine and Cellular Longevity, 2023)
# Molecular target: the molecule itself
# Test: SEC; Superdex 75 10/300GL on an AKTA purifier; 100 uL of 0.2 mg/mL protein injected; 0.6 mL/min; 20 mM Na2HPO4, 150 mM NaCl, 1 mM EDTA; mass estimated from the elution volume
row,Protein,stoichiometry N
1,"Phosphomannomutase2 (PMM2) wild type (enzyme, human, UniProt O15305-1 1-246, looked up, PMM2, human, open reading frame NM_000303, primers from the start codon to the stop codon; Cloned into pET28a(+) 'containing 6x His-tag'; also called PMM2-WT; WT; source: E. coli BL21 (DE3), purified (Ni-NTA, Superdex 75)) MAAPGPALCLFDVDGTLTAPRQKITKEMDDFLQKLRQKIKIGVVGGSDFEKVQEQLGNDVVEKYDYVFPENGLVAYKDGKLLCRQNIQSHLGEALIQDLINYCLSYIAKIKLPKKRGTFIEFRNGMLNVSPIGRSCSQEERIEFYELDKKENIRQKFVADLRKEFAGKGLTFSIGGQISFDVFPDGWDKRYCLRHVENDGYKTIYFFGDKTMPGGNDHEIFTDPRTMGYSVTAPEDTRRICELLFS",2
2,"PMM2 Cys9Tyr (C9Y) variant (enzyme, human, UniProt O15305-1 1-246, looked up, PMM2, human, open reading frame NM_000303, with the pathogenic variant C9Y (c. G26A) found in patients; Cloned into pET28a(+) 'containing 6x His-tag'; also called PMM2-C9Y; source: E. coli BL21 (DE3), purified (Ni-NTA, Superdex 75)) MAAPGPALYLFDVDGTLTAPRQKITKEMDDFLQKLRQKIKIGVVGGSDFEKVQEQLGNDVVEKYDYVFPENGLVAYKDGKLLCRQNIQSHLGEALIQDLINYCLSYIAKIKLPKKRGTFIEFRNGMLNVSPIGRSCSQEERIEFYELDKKENIRQKFVADLRKEFAGKGLTFSIGGQISFDVFPDGWDKRYCLRHVENDGYKTIYFFGDKTMPGGNDHEIFTDPRTMGYSVTAPEDTRRICELLFS",2
3,"PMM2 Cys241Ser (C241S) variant (enzyme, human, UniProt O15305-1 1-246, looked up, PMM2, human, open reading frame NM_000303, with the pathogenic variant C241S (c. G722C) found in patients; Cloned into pET28a(+) 'containing 6x His-tag'; also called PMM2-C241S; source: E. coli BL21 (DE3), purified (Ni-NTA, Superdex 75)) MAAPGPALCLFDVDGTLTAPRQKITKEMDDFLQKLRQKIKIGVVGGSDFEKVQEQLGNDVVEKYDYVFPENGLVAYKDGKLLCRQNIQSHLGEALIQDLINYCLSYIAKIKLPKKRGTFIEFRNGMLNVSPIGRSCSQEERIEFYELDKKENIRQKFVADLRKEFAGKGLTFSIGGQISFDVFPDGWDKRYCLRHVENDGYKTIYFFGDKTMPGGNDHEIFTDPRTMGYSVTAPEDTRRISELLFS",2
